Test results taken from paper PMC8403083.

Columns and labels:
enzyme kinetics [1] = substrate: Nc1ccn([C@@H]2O[C@H](COP(=O)(O)O)[C@@H](O)[C@H]2O)c(=O)n1; assay: enzyme kinetics; format: biochemical, Homo sapiens
enzyme kinetics [2] = substrate: Nc1ncnc2c1ncn2[C@@H]1O[C@H](COP(=O)(O)O)[C@@H](O)[C@H]1O; assay: enzyme kinetics; format: biochemical, Homo sapiens

B1: CD73 (5ʹ-Nucleotidase) (Homo sapiens) (protein)
chain: WELTILHTNDVHSRLEQTSEDSSKCVNASRCMGGVARLFTKVQQIRRAEPNVLLLDAGDQYQGTIWFTVYKGAEVAHFMNALRYDAMALGNHEFDNGVEGLIEPLLKEAKFPILSANIKAKGPLASQISGLYLPYKVLPVGDEVVGIVGYTSKETPFLSNPGTNLVFEDEITALQPEVDKLKTLNVNKIIALGHSGFEMDKLIAQKVRGVDVVVGGHSNTFLYTGNPPSKEVPAGKYPFIVTSDDGRKVPVVQAYAFGKYLGYLKIEFDERGNVISSHGNPILLNSSIPEDPSIKADINKWRIKLDNYSTQELGKTIVYLDGSSQSCRFRECNMGNLICDAMINNNLRHTDEMFWNHVSMCILNGGGIRSPIDERNNGTITWENLAAVLPFGGTFDLVQLKGSTLKKAFEHSVHRYGQSTGEFLQVGGIHVVYDLSRKPGDRVVKLDVLCTKCRVPSYDPLKMDEVYKVILPNFLANGGDGFQMIKDELLRHDSGDQDINVVSTYISKMKVIYPAVEGRIK
Km (enzyme kinetics [1]): 45 µM | Km (enzyme kinetics [2]): 2.7 µM
